B1: Antibody 18 IgG (antibody, V domains shown)
VH: QVQLVQSGAEVKKPGATVKLSCKVYGYIFTDYNIYWVRQAPGKGLEWMGLIDPDNGETFYAEKFQGRATMTADTSSDRAYMELTSLTFEDTATYYCATVLLRSAKGGYDYWGRGTLVTVSS
VL: QSVLTQPPSVSGAPGQRVTISCTGSSSNIGAGYDVHWYQQLPGTAPKLLIYDNFNRPSGVPDRFSGSKSGTSASLAIIGLQTEDEADYYCQSYDSHLQLSPFGTGTKLTVL
B2: Antibody 8 IgG (antibody, V domains shown)
VH: B1 VH with L101G, S103W, A104I
VL: B1 VL with H96P, L97T, Q98H, L99T
notes: Whole human IgG (section 1.4, IgG1)
B3: Antibody 28 IgG (antibody, V domains shown)
VH: B1 VH with L100M, L101G, R102K, S103W, A104I
VL: B1 VL with H96S, L97S, Q98L, L99H
notes: as for B2
B4: Antibody 23 IgG (antibody, V domains shown)
VH: B1 VH with L100M, L101G, R102K, S103W, A104I
VL: B1 VL with L97H, Q98L, L99Y, P101S
notes: as for B2
B5: Antibody 19 IgG (antibody, V domains shown)
VH: B1 VH with L100M, L101G, R102K, S103W, A104I
VL: B1 VL with H96T, Q98S, L99H
notes: as for B2
B6: Antibody 20 IgG (antibody, V domains shown)
VH: B1 VH with L100M, L101G, R102K, S103W, A104I
VL: B1 VL with H96S, L97T, Q98S, L99S
notes: as for B2
B7: Antibody 6 IgG (antibody, V domains shown)
VH: B1 VH with L100M, L101G, R102K, S103W, A104I
VL: B1 VL with H96T, L97M, Q98R, L99H, S100G
notes: as for B2
B8: Antibody 12 IgG (antibody, V domains shown)
VH: B1 VH with L100M, L101G, R102K, S103W, A104I
VL: B1 VL with H96S, L97I, Q98D, L99H
notes: as for B2
B9: Antibody 4 IgG (antibody, V domains shown)
VH: B1 VH with L100M, L101G, R102K, S103W, A104I
VL: B1 VL with H96R, L97G, Q98G, L99H
notes: as for B2
B10: Antibody 13 IgG (antibody, V domains shown)
VH: B1 VH with L100M, L101G, R102K, S103W, A104I
VL: B1 VL with H96N, L97I, Q98L, L99Y
notes: as for B2
B11: Antibody 11 IgG (antibody, V domains shown)
VH: B1 VH with L100M, L101G, R102K, S103W, A104I
VL: B1 VL with H96P, L97T, Q98L, L99T
notes: as for B2
B12: Antibody 5 IgG (antibody, V domains shown)
VH: B1 VH with L100M, L101G, R102K, S103W, A104I
VL: B1 VL with H96T, L97K, Q98H, L99T
notes: as for B2
B13: Antibody 16 IgG (antibody, V domains shown)
VH: B1 VH with L100S, R102K
VL: B1 VL with H96R, L97H, Q98H, L99H, S100A
notes: as for B2
B14: Antibody 2 scFv (scFv, V domains shown)
VH: B1 VH with L100S
VL: B1 VL with H96S, Q98S, L99G, P101L
notes: Purified scFv
B15: Antibody 21 scFv (scFv, V domains shown)
VH: B1 VH with L100T, R102K
VL: B1 VL with H96S, L97S
notes: Purified scFv
B16: Antibody 16 scFv (scFv, V domains shown)
VH: B1 VH with L100S, R102K
VL: B1 VL with H96R, L97H, Q98H, L99H, S100A
notes: Purified scFv
B17: Antibody 18 scFv (scFv, V domains shown)
VH: B1 VH
VL: B1 VL
notes: Purified scFv
B18: Antibody 24 scFv (scFv, V domains shown, not shown: small tags and cut ends)
VH: B1 VH with L100T, R102K, S103T
VL: B1 VL with H96R, L97N, Q98G, L99Y, S100G, P101G
notes: Purified scFv
B19: Antibody 14 scFv (scFv, V domains shown)
VH: B1 VH with L100M, L101G, R102K, S103W, A104I
VL: B1 VL with L97H, Q98R, L99H
notes: Purified scFv
B20: Antibody 12 scFv (scFv, V domains shown)
VH: B1 VH with L100M, L101G, R102K, S103W, A104I
VL: B1 VL with H96S, L97I, Q98D, L99H
notes: Purified scFv
B21: Antibody 9 scFv (scFv, V domains shown)
VH: B1 VH with L100T
VL: B1 VL with H96P, L97S, Q98S, L99T
notes: Purified scFv
B22: Antibody 28 scFv (scFv, V domains shown, not shown: small tags and cut ends)
VH: B1 VH with L100M, L101G, R102K, S103W, A104I
VL: B1 VL with H96S, L97S, Q98L, L99H
notes: Purified scFv
B23: Antibody 15 scFv (scFv, V domains shown)
VH: B1 VH with L100T, R102K, S103T
VL: B1 VL with L97K, Q98G, L99Y, S100G, P101G
notes: Purified scFv
B24: Antibody 23 scFv (scFv, V domains shown, not shown: small tags and cut ends)
VH: B1 VH with L100M, L101G, R102K, S103W, A104I
VL: B1 VL with L97H, Q98L, L99Y, P101S
notes: Purified scFv
B25: Antibody 10 scFv (scFv, V domains shown)
VH: B1 VH with L100S, S103A
VL: B1 VL with H96E, L97Q, Q98E, S100A
notes: Purified scFv
B26: Antibody 26 scFv (scFv, V domains shown, not shown: small tags and cut ends)
VH: B1 VH with L100S, R102K, S103E
VL: B1 VL with H96A, L97S, Q98R, L99H, S100A
notes: Purified scFv
B27: Antibody 27 scFv (scFv, V domains shown, not shown: small tags and cut ends)
VH: B1 VH with L100S, R102K, S103E
VL: B1 VL with H96P, L97T, L99T
notes: Purified scFv
B28: Antibody 11 scFv (scFv, V domains shown)
VH: B1 VH with L100M, L101G, R102K, S103W, A104I
VL: B1 VL with H96P, L97T, Q98L, L99T
notes: Purified scFv
B29: Antibody 13 scFv (scFv, V domains shown)
VH: B1 VH with L100M, L101G, R102K, S103W, A104I
VL: B1 VL with H96N, L97I, Q98L, L99Y
notes: Purified scFv
B30: Antibody 22 scFv (scFv, V domains shown)
VH: B1 VH with L100T, R102K
VL: B1 VL with H96S, L97G, Q98G, L99Y, S100A
notes: Purified scFv
B31: Antibody 25 scFv (scFv, V domains shown, not shown: small tags and cut ends)
VH: B1 VH with L100T, R102K
VL: B1 VL with H96N, L97H, Q98K, L99T
notes: Purified scFv
B32: Antibody 6 scFv (scFv, V domains shown)
VH: B1 VH with L100M, L101G, R102K, S103W, A104I
VL: B1 VL with H96T, L97M, Q98R, L99H, S100G
notes: Purified scFv
B33: Antibody 7 scFv (scFv, V domains shown)
VH: B1 VH with L100T, R102K
VL: B1 VL with H96D, L97R, Q98R, L99N
notes: Purified scFv
B34: Antibody 4 scFv (scFv, V domains shown)
VH: B1 VH with L100M, L101G, R102K, S103W, A104I
VL: B1 VL with H96R, L97G, Q98G, L99H
notes: Purified scFv
B35: Antibody 5 scFv (scFv, V domains shown)
VH: B1 VH with L100M, L101G, R102K, S103W, A104I
VL: B1 VL with H96T, L97K, Q98H, L99T
notes: Purified scFv
B36: Antibody 3 scFv (scFv, V domains shown)
VH: B1 VH with L100M, L101G, R102K, S103W, A104I
VL: B1 VL with H96T, L97F, Q98N, L99H, S100A
notes: Purified scFv
B37: Antibody 8 scFv (scFv, V domains shown)
VH: B1 VH with L101G, S103W, A104I
VL: B1 VL with H96P, L97T, Q98H, L99T
notes: Purified scFv
B38: Antibody 17 scFv (scFv, V domains shown)
VH: B1 VH with L100T, R102K
VL: B1 VL with H96Q, L97S, Q98S, L99T
notes: Purified scFv

Substitutions are numbered along the chain they refer to.

T1 sequence (heavy, as listed by the source limits assumed, chain 1 of 2): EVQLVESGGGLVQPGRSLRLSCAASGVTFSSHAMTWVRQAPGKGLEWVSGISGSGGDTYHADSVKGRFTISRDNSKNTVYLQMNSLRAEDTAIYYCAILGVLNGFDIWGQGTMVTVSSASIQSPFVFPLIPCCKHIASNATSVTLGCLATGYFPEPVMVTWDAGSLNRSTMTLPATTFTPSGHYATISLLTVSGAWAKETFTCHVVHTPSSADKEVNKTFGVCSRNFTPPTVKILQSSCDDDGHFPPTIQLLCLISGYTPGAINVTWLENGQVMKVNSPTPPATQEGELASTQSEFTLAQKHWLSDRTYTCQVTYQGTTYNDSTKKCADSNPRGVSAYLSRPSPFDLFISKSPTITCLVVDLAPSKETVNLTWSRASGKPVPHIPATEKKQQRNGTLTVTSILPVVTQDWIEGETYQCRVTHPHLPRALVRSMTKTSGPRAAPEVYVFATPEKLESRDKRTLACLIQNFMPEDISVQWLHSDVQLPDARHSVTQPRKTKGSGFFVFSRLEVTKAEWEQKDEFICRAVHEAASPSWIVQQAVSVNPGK
T1 sequence (light, as listed by the source limits assumed, chain 2 of 2): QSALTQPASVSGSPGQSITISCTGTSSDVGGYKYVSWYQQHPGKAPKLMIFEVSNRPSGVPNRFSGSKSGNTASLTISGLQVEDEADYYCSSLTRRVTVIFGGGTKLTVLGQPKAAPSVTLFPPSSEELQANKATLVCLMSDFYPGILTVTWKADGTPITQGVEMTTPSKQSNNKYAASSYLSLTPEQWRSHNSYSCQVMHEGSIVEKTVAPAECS

One experiment concerns the target T1, cynomolgus IgE (recombinant chimaeric D12 variable region and cynomolgus IgE constant region) (cynomolgus monkey (constant region); …). Briefly: cell-based or functional assay.
Consider B1, for which the “RBL-ER51 calcium signalling IC50 (nM), Cynomolgus IgE, geomean” value (shortened to “RBL-ER51 calcium signalling IC50 (nM)”) stood at 2.97 nM.
Still for that read-out and setting: to B2 belongs 0.188 nM; to B3, 0.253 nM.
For B4, the “RBL-ER51 calcium signalling IC50 (nM)” value came to 0.523 nM.
For B5, the “RBL-ER51 calcium signalling IC50 (nM)” value was 0.111 nM.
As to B6, the “RBL-ER51 calcium signalling IC50 (nM)” value was 0.31 nM.
The same measure, in the same setting: to B7 belongs 0.168 nM; to B8, 0.334 nM.
In the case of B9, the “RBL-ER51 calcium signalling IC50 (nM)” value was determined as 0.151 nM.
The same measure, in the same setting: to B10 belongs 0.244 nM; to B11, 0.153 nM.
The same measure, in the same setting: to B12 belongs 0.181 nM; to B13, 4.38 nM.

In a further experiment the target is MOv18 IgE. Briefly: cell-based or functional assay.
For B11, the “IC50 (read off the curve), IgE/FcεRI-mediated cytotoxicity” value is approximately 0.1 nM.

The target in the next experiment is T1, cynomolgus IgE (recombinant chimaeric …). Briefly: SPR BIAcore; IgG captured on protein G', IgE analyte, bivalent analyte fit; geomean.
Take B2: the Kd is 6.3 nM.
Same read-out and setting: under B3 stands 7.2 nM.
Still for that read-out and setting: under B4 stands 4.3 nM; under B5, 7.9 nM; under B6, 10.5 nM.
The same measure, in the same setting: to B7 belongs 3.7 nM.
In the case of B8, the Kd was determined as 230 nM.
Same read-out and setting: under B9 stands 8 nM; under B10, 9.9 nM.
The same measure, in the same setting: under B11 stands 9.3 nM; under B12, 7.9 nM; under B13, 62 nM.

Another experiment shares this target. Briefly: HTRF competition; scFv titrated vs Eu-cryptate cynomolgus IgE binding to human FcεRI-Fc; geomean.
Take B14: the IC50 (in general, the concentration needed to halve the response being measured) was 317 nM.
The same measure, in the same setting: under B15 stands 65 nM; under B16, 63 nM; under B17, 110 nM.
For B18, the IC50 was found to be 111 nM.
Same read-out and setting: to B19 belongs 15 nM; to B20, 7 nM.
The same measure, in the same setting: under B21 stands 132 nM; under B22, 7 nM.
Same read-out and setting: under B23 stands 172 nM; under B24, 6 nM.
B25: the IC50 was 116 nM.
The same measure, in the same setting: under B26 stands 121 nM; under B27, 117 nM; under B28, 7 nM.
Same read-out and setting: under B29 stands 7 nM.
On the same count and under the same terms, under B30 stands 68 nM; under B31, 86 nM; under B32, 11 nM.
With B33, the IC50 stood at 186 nM.
Regarding B34, the IC50 was 5 nM.
B35: the concentration for half-maximal inhibition (IC50) turned out to be 6 nM.
In the case of B36, the IC50 is 18 nM.
Still for that read-out and setting: to B37 belongs 12 nM; to B38, 109 nM.

The record behind these values is US20140127212A1 (AstraZeneca / MedImmune, published 2014).
